In patent US20180022780A1 (Bayer, published 2018):
Bridge positions count the residues as written; N and C are the ends. Square brackets hold non-standard residues; d marks the D form. Ends that are not written are not given here. Orn = NCCC[C@H](N)C(=O)O; Dap = NC[C@H](N)C(=O)O

What was measured:
[1] = molecular target: CLR fused to EYFP with RAMP2 fused to ECFP; assay: cell-based or functional assay
[2] = molecular target: human adrenomedullin-receptor (human, UniProt Q16602 23-461); assay: cell-based or functional assay
human adrenomedullin-receptor, sequence (Q16602 23-461): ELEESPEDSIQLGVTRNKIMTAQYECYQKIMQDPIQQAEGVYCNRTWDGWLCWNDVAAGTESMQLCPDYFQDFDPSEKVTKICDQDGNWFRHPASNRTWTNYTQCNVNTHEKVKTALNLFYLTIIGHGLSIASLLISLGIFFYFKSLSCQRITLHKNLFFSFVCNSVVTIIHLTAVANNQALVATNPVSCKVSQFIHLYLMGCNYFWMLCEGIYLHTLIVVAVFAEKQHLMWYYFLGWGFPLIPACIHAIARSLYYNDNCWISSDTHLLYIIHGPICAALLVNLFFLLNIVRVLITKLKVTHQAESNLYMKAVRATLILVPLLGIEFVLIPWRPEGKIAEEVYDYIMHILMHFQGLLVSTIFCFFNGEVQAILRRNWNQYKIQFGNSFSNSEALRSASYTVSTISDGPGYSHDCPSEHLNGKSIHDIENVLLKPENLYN

CLR fused to EYFP with RAMP2 fused to ECFP, sequence (Q16602 whole entry, chain 1 of 2, the tested form may be a part): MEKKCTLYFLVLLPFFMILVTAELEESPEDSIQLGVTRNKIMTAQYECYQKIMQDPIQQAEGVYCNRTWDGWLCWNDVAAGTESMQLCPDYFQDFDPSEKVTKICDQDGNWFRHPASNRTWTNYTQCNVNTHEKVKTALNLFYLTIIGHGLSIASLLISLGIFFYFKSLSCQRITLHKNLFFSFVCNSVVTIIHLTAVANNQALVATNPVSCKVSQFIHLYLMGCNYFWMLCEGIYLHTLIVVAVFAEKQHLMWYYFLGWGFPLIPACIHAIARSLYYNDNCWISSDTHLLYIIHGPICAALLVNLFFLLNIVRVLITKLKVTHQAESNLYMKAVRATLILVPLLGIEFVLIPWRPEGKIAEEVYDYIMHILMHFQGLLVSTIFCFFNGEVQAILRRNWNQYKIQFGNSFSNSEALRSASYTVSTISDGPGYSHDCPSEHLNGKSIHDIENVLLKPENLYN
CLR fused to EYFP with RAMP2 fused to ECFP, sequence (O60895 whole entry, chain 2 of 2, further chain, the tested form may be a part): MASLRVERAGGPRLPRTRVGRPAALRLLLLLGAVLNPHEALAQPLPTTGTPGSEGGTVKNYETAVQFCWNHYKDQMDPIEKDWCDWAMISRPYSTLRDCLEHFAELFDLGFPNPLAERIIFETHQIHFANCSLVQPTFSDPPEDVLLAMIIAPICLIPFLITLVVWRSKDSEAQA

EC50 [nM], cAMP assay (CRE-luciferase luminescence, HEK293 cells) [1] [nM] | EC50 [nM], aequorin luminescence of CHO adrenomedullin-receptor reporter cells [2] [nM] | Binder
16.9 | 15 | GGCRFGTXTVQKLAHQIYQFTDKDKDNVAPRSKISPQGY (palmitic acid (PAM) on the N-terminus (G14); positions 16 and 21 (residues 3 and 8 of the letters) together are cystathionine (C^16→U^21, thioether); X stands for the printed U at 21; C-terminal …) [PAM[G^14, (C^16→U^21)]ADM(14-52)]
9.1 | 27 | GG[Orn]RFGTETVQKLAHQIYQFTDKDKDNVAPRSKISPQGY-NH2 (lactam 3-8; N-terminus assumed; SMILES CC[C@H](C)[C@H](NC(=O)[C@H](CCC(N)=O)NC(=O)[C@H](Cc1c[nH]cn1)NC(=O)[C@H](C)NC(=O)[C@H](CC(C)C)NC(=O)[C@H](CCCCN)NC(=O)[C@H](CCC(N)=O)NC(=O)[C@@H](NC(=O)[C@@H](NC(=O)[C@@H]1CCC(=O)NCCC[C@H](NC(=O)CNC(=O)CN)C(=O)N[C@@H](CCCNC(=N)N)C(=O)N[C@@H](Cc2ccccc2)C(=O)NCC(=O)N[C@@H]([C@@H](C)O)C(=O)N1)[C@@H](C)O)C(C)C)C(=O)N[C@@H](Cc1ccc(O)cc1)C(=O)N[C@@H](CCC(N)=O)C(=O)N[C@@H](Cc1ccccc1)C(=O)N[C@H](C(=O)N[C@@H](CC(=O)O)C(=O)N[C@@H](CCCCN)C(=O)N[C@@H](CC(=O)O)C(=O)N[C@@H](CCCCN)C(=O)N[C@@H](CC(=O)O)C(=O)N[C@@H](CC(N)=O)C(=O)N[C@H](C(=O)N[C@@H](C)C(=O)N1CCC[C@H]1C(=O)N[C@@H](CCCNC(=N)N)C(=O)N[C@@H](CO)C(=O)N[C@@H](CCCCN)C(=O)N[C@H](C(=O)N[C@@H](CO)C(=O)N1CCC[C@H]1C(=O)N[C@@H](CCC(N)=O)C(=O)NCC(=O)N[C@@H](Cc1ccc(O)cc1)C(N)=O)[C@@H](C)CC)C(C)C)[C@@H](C)O) [[G^14, (Orn^16, E^21)lac]ADM(14-52)]
> 1000 | > 1000 | GGKRFGTDTVQKLAHQIYQFTDKDKDNVAPRSKISPQGY-NH2 (lactam 3-8; N-terminus assumed; SMILES CC[C@H](C)[C@H](NC(=O)[C@H](CCC(N)=O)NC(=O)[C@H](Cc1c[nH]cn1)NC(=O)[C@H](C)NC(=O)[C@H](CC(C)C)NC(=O)[C@H](CCCCN)NC(=O)[C@H](CCC(N)=O)NC(=O)[C@@H](NC(=O)[C@@H](NC(=O)[C@@H]1CC(=O)NCCCC[C@H](NC(=O)CNC(=O)CN)C(=O)N[C@@H](CCCNC(=N)N)C(=O)N[C@@H](Cc2ccccc2)C(=O)NCC(=O)N[C@@H]([C@@H](C)O)C(=O)N1)[C@@H](C)O)C(C)C)C(=O)N[C@@H](Cc1ccc(O)cc1)C(=O)N[C@@H](CCC(N)=O)C(=O)N[C@@H](Cc1ccccc1)C(=O)N[C@H](C(=O)N[C@@H](CC(=O)O)C(=O)N[C@@H](CCCCN)C(=O)N[C@@H](CC(=O)O)C(=O)N[C@@H](CCCCN)C(=O)N[C@@H](CC(=O)O)C(=O)N[C@@H](CC(N)=O)C(=O)N[C@H](C(=O)N[C@@H](C)C(=O)N1CCC[C@H]1C(=O)N[C@@H](CCCNC(=N)N)C(=O)N[C@@H](CO)C(=O)N[C@@H](CCCCN)C(=O)N[C@H](C(=O)N[C@@H](CO)C(=O)N1CCC[C@H]1C(=O)N[C@@H](CCC(N)=O)C(=O)NCC(=O)N[C@@H](Cc1ccc(O)cc1)C(N)=O)[C@@H](C)CC)C(C)C)[C@@H](C)O) [[G^14, (K^16, D^21)lac]ADM(14-52)]
> 1000 | 32 | GGDRFGT[Dap]TVQKLAHQIYQFTDKDKDNVAPRSKISPQGY-NH2 (lactam 3-8) [[G^14, (D^16, Dpr^21)lac]ADM(14-52)]
2.3 | 15 | GGDRFGTKTVQKLAHQIYQFTDKDKDNVAPRSKISPQGY-NH2 (lactam 3-8) [[G^14, (D^16, K^21)lac]ADM(14-52)]
